From article PMC10409766, “Cryo-EM structures of human zinc transporter ZnT7 reveal the mechanism of Zn^2+ uptake into the Golgi apparatus” (Nature Communications, 2023)
One block for each binder: values may come before it.

Experiments:
[1] = molecular target: T1, human ZnT7 (hZnT7) with an N-terminal PA-tag (human, UniProt Q8NEW0); experiment: ELISA + SEC; liposome ELISA on biotinylated hZnT7 proteoliposomes immobilised on streptavidin-coated microplates (with negative selection on SDS-denatured hZnT7); formation of stable complexes by fluorescence-detection SEC
T1 construct: human zinc transporter ZnT7, UniProt Q8NEW0; cDNA synthesized with codon optimization; the final model holds residues 22-376; In the antibody screening the purified protein was reconstituted into (biotinylated) proteoliposomes; also called hZnT7 WT; wild-type hZnT7

[2] = molecular target: T1, human ZnT7 (hZnT7) with an N-terminal …; experiment: cryo-EM structure; single-particle cryo-EM of hZnT7-Fab complexes purified by SEC in 0.02% GDN (Talos Arctica for first maps, CRYO ARM 300II for final data); samples with 1 mM EDTA, with 10 µM Zn2+ or with 200 or 300 µM Zn2+ added; details: both partners purified
[3] = molecular target: the molecule itself; experiment: as above

binding result [1]: binds
B1: mouse monoclonal antibody YN7114-08 against hZnT7 (parent of Fab#1) (antibody, V domains shown)
VH: EVQLQESGPGLVAPSQSLSITCTVSGFSLTNYAVHWVRQSPGKGLEWLGVIWSNGRTDYNAAFISRLSISKDNSKSQVFFKMNSLQADDTAIYYCARKLAYEGAMDYWGQGTSVTVSS
VL: DIVLTQSPASLAVSLRRRATISCRASESVDGYGHSFMHWYQQKSGQPPKLLIYRASNLESGVPARFSGSGSRTDFTLTIDPVEADDAATYYCQQSNEDPYTFGSGTKLEIK
notes: Whole antibody as screened by liposome ELISA and fluorescence-detection SEC; source: mouse hybridoma (MRL/lpr mice immunised with hZnT7 proteoliposomes)

binding result [2]: binds
B2: Fab#1 (YN7114-08), Fab fragment of a mouse monoclonal antibody against hZnT7 (Fab, V domains shown)
VH: EVQLQESGPGLVAPSQSLSITCTVSGFSLTNYAVHWVRQSPGKGLEWLGVIWSNGRTDYNAAFISRLSISKDNSKSQVFFKMNSLQADDTAIYYCARKLAYEGAMDYWGQGTSVTVSS
VL: DIVLTQSPASLAVSLRRRATISCRASESVDGYGHSFMHWYQQKSGQPPKLLIYRASNLESGVPARFSGSGSRTDFTLTIDPVEADDAATYYCQQSNEDPYTFGSGTKLEIK
notes: the model holds Fab heavy chain residues 1-234; also in the deposited PDB entries; the model holds Fab light chain residues 1-218; also called the Fab fragment; source: Fab fragment of a mouse monoclonal antibody (hybridoma, MRL/lpr mice immunised with hZnT7 proteoliposomes)

B3: human ZnT7 (hZnT7) with an N-terminal PA-tag (natural protein)
chain: MLPLSIKDDEYKPPKFNLFGKISGWFRSILSDKTSRNLFFFLCLNLSFAFVELLYGIWSNCLGLISDSFHMFFDSTAILAGLAASVISKWRDNDAFSYGYVRAEVLAGFVNGLFLIFTAFFIFSEGVERALAPPDVHHERLLLVSILGFVVNLIGIFVFKHGGHGHSHGSGHGHSHSLFNGALDQAHGHVDHCHSHEVKHGAAHSHDHAHGHGHFHSHDGPSLKETTGPSRQILQGVFLHILADTLGSIGVIASAIMMQNFGLMIADPICSILIAILIVVSVIPLLRESVGILMQRTPPLLENSLPQCYQRVQQLQGVYSLQEQHFWTLCSDVYVGTLKLIVAPDADARWILSQTHNIFTQAGVRQLYVQIDFAAM
notes: human zinc transporter ZnT7, UniProt Q8NEW0; cDNA synthesized with codon optimization; the final model holds residues 22-376; In the antibody screening the purified protein was reconstituted into (biotinylated) proteoliposomes; also called hZnT7 WT; wild-type hZnT7
stoichiometry N [3]: 2

B4: hZnT7ΔHis-loop (residues His176 to Pro221 deleted), PA-tagged (natural protein, human)
chain: MLPLSIKDDEYKPPKFNLFGKISGWFRSILSDKTSRNLFFFLCLNLSFAFVELLYGIWSNCLGLISDSFHMFFDSTAILAGLAASVISKWRDNDAFSYGYVRAEVLAGFVNGLFLIFTAFFIFSEGVERALAPPDVHHERLLLVSILGFVVNLIGIFVFKHGGHGHSHGSGHGHSSLKETTGPSRQILQGVFLHILADTLGSIGVIASAIMMQNFGLMIADPICSILIAILIVVSVIPLLRESVGILMQRTPPLLENSLPQCYQRVQQLQGVYSLQEQHFWTLCSDVYVGTLKLIVAPDADARWILSQTHNIFTQAGVRQLYVQIDFAAM
notes: human zinc transporter ZnT7, UniProt Q8NEW0, with the major portion of the His-loop (His176 to Pro221) deleted; Primers are in Supplementary Data 1; The dimer (copies 2) follows from the 'OF-OF form' and the C2 symmetry; also called hZnT7∆His-loop; pcDNA3.1-PA-hZnT7ΔHis-loop; source: HEK293T, transfected (pcDNA3.1, PEI), purified (anti-PA-tag antibody beads, SEC)
binding result [3]: binds
